Reference: patent US20090175881A1 (SCHERING, published 2009)

Key:
FLAG-huIL-17A [1] = biological target: T1, FLAG-huIL-17A (human, UniProt Q16552 24-155); assay: ECL (Origen), antibody titrated against biotinylated antigen; area under the curve
T1 construct: also called FLAG-huL-17A; FLAG-IL-17A
T1 sequence: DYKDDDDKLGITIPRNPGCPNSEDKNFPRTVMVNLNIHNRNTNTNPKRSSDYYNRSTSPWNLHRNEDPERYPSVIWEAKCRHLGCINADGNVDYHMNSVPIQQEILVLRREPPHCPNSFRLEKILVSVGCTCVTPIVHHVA
Source text: (§1) Origen electrochemiluminescence technology, developed by IGEN, Inc. (Gaithersburg, Md., USA), and was employed to measure the binding of rat anti-human IL-17A antibodies (and one chimeric antibody) to FLAG-huL-17A. […] Electrochemiluminescence technology uses a stable ruthenium metal chelate (Ori-TAG) which, in the presence of tripropylamine (TPA), generates electrochemiluminescence upon voltage application. Paramagnetic beads, microns in diameter, act as the solid phase and facilitate rapid assay kinetics. The bead/complex is channeled through a flow cell and captured at an electrode by magnetic application. Voltage is applied and resulting electrochemiluminescence is measured.
(§2) ECL assays were performed as follows. Three-fold serial dilutions of anti-human IL-17A mAbs in 50 μl of the assay buffer were made in a 96-well microtiter plate to give 1-3 μg/ml final concentration in the first well. […] Finally 50 μl of Origen Streptavidin-Dynabeads at 0.1 mg/ml was added to each well. […] GraphPad Prism software (GraphPad Software, San Diego, Calif., USA) was used to plot the data and calculate area under the curve, which is a rough measure of binding.

cynomolgus monkey IL-17A [2] = biological target: T2, cynomolgus monkey IL-17A (cynomolgus monkey, UniProt A0A2K5TTB0 24-155); assay: ECL (Origen); area under the curve
T2 construct: also called cyno IL-17A; cyno IL-17
T2 sequence: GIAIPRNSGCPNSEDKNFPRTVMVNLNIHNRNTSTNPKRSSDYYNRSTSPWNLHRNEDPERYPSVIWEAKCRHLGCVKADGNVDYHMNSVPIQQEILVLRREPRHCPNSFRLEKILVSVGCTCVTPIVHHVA
Source text: as §1, §2

rhIL-17A [3] = biological target: T3, rhIL-17A (human, UniProt Q16552 24-155); assay: indirect ELISA, rhIL-17A coated on plate
T3 construct: Homodimer; expressed from adenoviral vectors in HEK 293 cells; also called recombinant human IL-17A; adenovirus-derived rhIL-17A
T3 sequence: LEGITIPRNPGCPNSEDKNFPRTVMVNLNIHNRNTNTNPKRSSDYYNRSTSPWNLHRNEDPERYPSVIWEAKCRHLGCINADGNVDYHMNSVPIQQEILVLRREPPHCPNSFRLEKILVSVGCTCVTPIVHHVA
Procedure: Binding of anti-human-IL-17A monoclonal antibodies to rhIL-17A is assessed using an indirect enzyme-linked immunosorbent assay (ELISA). Briefly, a fixed concentration of rhIL-17A is bound directly to the wells of a microtiter plate. The monoclonal anti-IL-17A to be assayed is then is added to the rhIL-17A coated plate, where the antibody is captured and quantitated.
A 96-well U-bottom MaxiSorp plate is coated with 50 μl/well of rhIL-17A (0.5 μg/ml) in carbonate coating buffer (the “assay plate”). Carbonate coating buffer is 2.9 g/L NaHFCO₃, 1.6 g/L Na₂CO₃, pH 9.4. Plates are incubated covered at 4° C. overnight. Monoclonal antibodies to be screened are serially diluted in duplicate across the rows of a V-bottom plate such that the final volume is 60 μl/well (the “serial dilution plate”). The assay plate is washed three times with PBS-Tween in a plate washer (SkanWasher, Molecular Devices, Sunnyvale, Calif., USA) and blotted dry. PBS-Tween is obtained by adding 0.5 ml/L Tween 20 to 1×PBS. Fifty μl from each well of the serial dilution plate is transferred to the assay plate and incubated at 25° C. for one hour. Secondary antibodies are diluted 1/2000 in diluent (PBS-BSA-Tween, which is PBS-Tween with 1 g/L BSA). The secondary antibody for rat monoclonal antibodies is goat anti-rat IgG (H+L)—HRP (Jackson ImmunoResearch Laboratories, Inc., West Grove, Pa., USA). The secondary antibody for chimeric and humanized monoclonal antibodies is F(ab′)₂ goat anti-human IgG Fcγ—HRP (Jackson ImmunoResearch Laboratories, Inc.). The assay plate is washed as before. Diluted secondary antibodies (100 μl/well) are added to the appropriate wells in the assay plate, and the plate is incubated at 25° C. for 45 minutes. The assay plate is washed as before.

rhIL-17A [4] = biological target: T3, rhIL-17A; assay: KinExA, solution equilibrium
Procedure: (§3) The equilibrium dissociation constants (Kd) for anti human IL-17A antibodies were determined using the KinExA 3000 instrument (Sapidyne Instruments Inc., Boise, Id., USA). KinExA uses the principle of the Kinetic Exclusion Assay method based on measuring the concentration of uncomplexed antibody in a mixture of antibody, antigen and antibody-antigen complex. […] The concentration of free antibody is measured by exposing the mixture to a solid-phase immobilized antigen for a very brief period of time. l practice, this is accomplished by flowing the solution phase antigen-antibody mixture past antigen-coated particles trapped in a flow cell. Data generated by the instrument are analyzed using custom software.
(§4) IL-17A was derived from either human (“hu”), cynomolgus monkey (“cyno”), or mouse (“mu”). IL-17A from the same species was used in both the immobilized and solution phases for each KinExA determination. Poly(methyl-methacrylate) (PMMA) particles (98 micron) were coated with human, cyno or mouse IL-17A according to Sapidyne “Protocol for coating PMMA particles with biotinylated ligands having short or nonexistent linker arms.” All experimental procedures were done according to the KinExA 3000 manual. All runs were done in duplicate.
(§5) Two-fold serial dilutions of the antigen were prepared and mixed with the antibody at constant concentration. The mixture was incubated for 2 hours at 25° C. to equilibrate.

cynomolgus monkey IL-17A [5] = biological target: T2, cynomolgus monkey IL-17A; assay: KinExA, solution equilibrium
Procedure: as §3, §4, §5

FLAG-huIL-17A [6] = biological target: T1, FLAG-huIL-17A; assay: KinExA, solution equilibrium
Procedure: as §3, §4, §5

rhIL-17A [7] = biological target: T3, rhIL-17A; assay: cell-based or functional assay
cynomolgus monkey IL-17A [8] = biological target: T2, cynomolgus monkey IL-17A; assay: cell-based or functional assay
rhIL-17A [9] = biological target: T3, rhIL-17A; assay: cell-based or functional assay; remark: listed apart in the source
cynomolgus monkey IL-17A [10] = biological target: T2, cynomolgus monkey IL-17A; assay: cell-based or functional assay; remark: listed apart in the source
rhIL-17A [11] = biological target: T3, rhIL-17A; assay: cell-based or functional assay; remark: listed apart in the source
cynomolgus monkey IL-17A [12] = biological target: T2, cynomolgus monkey IL-17A; assay: cell-based or functional assay; remark: listed apart in the source
mouse IL-17A = biological target: T4, mouse IL-17A (mouse, UniProt Q62386 26-158, limits assumed); assay: ECL (Origen)
T4 construct: also called mu IL-17A; mu IL-17
T4 sequence (looked up): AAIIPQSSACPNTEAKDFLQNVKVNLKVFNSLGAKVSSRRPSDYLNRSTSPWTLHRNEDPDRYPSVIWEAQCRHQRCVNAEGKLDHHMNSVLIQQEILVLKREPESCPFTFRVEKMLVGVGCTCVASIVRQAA
Procedure: as §2

rhIL-17A [13] = biological target: T3, rhIL-17A; assay: cell-based or functional assay; remark: listed apart in the source
rhIL-17A [14] = biological target: T3, rhIL-17A; assay: cell-based or functional assay; remark: listed apart in the source
cynomolgus monkey IL-17A [15] = biological target: T2, cynomolgus monkey IL-17A; assay: cell-based or functional assay; remark: listed apart in the source
FLAG-tagged mouse IL-17A = biological target: T5, FLAG-tagged mouse IL-17A (mouse, UniProt Q62386 26-158, limits assumed); assay: observation on which Example 19 is based
T5 construct: also called mIL-17A; intact mIL-17A
T5 sequence: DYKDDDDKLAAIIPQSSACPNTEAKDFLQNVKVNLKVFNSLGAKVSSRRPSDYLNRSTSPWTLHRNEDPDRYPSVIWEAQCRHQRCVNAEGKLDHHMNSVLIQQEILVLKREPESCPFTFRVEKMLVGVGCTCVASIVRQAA

FLAG-tagged human IL-17F = biological target: T6, FLAG-tagged human IL-17F (human, UniProt Q96PD4 31-163, limits assumed); assay: AlphaScreen
T6 construct: also called intact IL-17F
T6 sequence: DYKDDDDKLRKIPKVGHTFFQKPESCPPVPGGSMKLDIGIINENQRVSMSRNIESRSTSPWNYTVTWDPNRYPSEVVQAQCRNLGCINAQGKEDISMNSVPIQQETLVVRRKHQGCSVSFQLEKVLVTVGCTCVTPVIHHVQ
Procedure: Each of these three proteins was linked to an N-terminal FLAG® peptide tag (see residues 1 to 9 of SEQ ID NO.: 42). […] Donor and acceptor beads were mixed, illuminated at 680 nm, and emission was measured at 520-620 nm.

B1: rat 16C10 (antibody, rat IgG1, V domains shown)
VH: QVELRESGPGLVQPSQTLSLTCTVSGFSLPSHSVSWIRQPPGKGLEWMGIIWNNGGTDYNSAFKSRLTISRDTSKSQVFLKMNSLQTEDTAMYFCARNMYITDYYYENYFMDAWGQGASVTVSS
VL: DIVMTQSPSSLAVSIGETVTLNCKSSQSLLFSENQKNYLAWYQHKSGQSPKLLVYWTSTRQSGVPDRFMGSGSGTDFTLTISSVQAEDLAIYYCQQSYYTPYTFGAGTKLELKR
notes: also called 16C10C; antibody 16C10
- Area Under Peak (FLAG-huIL-17A [1]): 286000
- Area Under Peak (cynomolgus monkey IL-17A [2]): 152000
- EC50 (rhIL-17A [3]): 0.274 nM
- Kd (rhIL-17A [4]): 6 pM
- Kd (cynomolgus monkey IL-17A [5]): 1.7 pM
- Kd (FLAG-huIL-17A [6]): 3.6 pM
- IC50, synoviocyte IL-8 production, rhIL-17A (30 ng/ml) (rhIL-17A [7]): 38 ng/mL
- IC50, synoviocyte IL-8 production, NHP IL-17A (30 ng/ml) (cynomolgus monkey IL-17A [8]): 33 ng/mL
- IC50, synoviocyte IL-6 production, rhIL-17A (30 ng/ml) (rhIL-17A [9]): 63 ng/mL
- IC50, synoviocyte IL-6 production, NHP IL-17A (30 ng/ml) (cynomolgus monkey IL-17A [10]): 60 ng/mL
- IC50, Ba/F3 hIL-17Rc-mGCSFR proliferation assay, IL-17A at 100 pM (rhIL-17A [11]): 20 pM
- IC50, Ba/F3 hIL-17Rc-mGCSFR proliferation assay, IL-17A at 276 pM (rhIL-17A [11]): 162 pM
- IC50, Ba/F3 hIL-17Rc-mGCSFR proliferation assay, IL-17A at 100 pM (cynomolgus monkey IL-17A [12]): 27 pM
- binding result (mouse IL-17A): no binding (tested: 1-3 µg/ml antibody in the first well)
- IC50, foreskin fibroblast (HS68) assay, rhIL-17A-induced IL-6 (rhIL-17A [13]): 67 pM
- IC50, inhibition of IL-6 production in NHDF cells, rhIL-17A (rhIL-17A [14]): 0.5 nM
- IC50, inhibition of IL-6 production in NHDF cells, cyno IL-17A (cynomolgus monkey IL-17A [15]): 0.2 nM
- binding result (FLAG-tagged mouse IL-17A): no binding
- binding result (FLAG-tagged human IL-17F): no binding
